# Results as given in IntAct's records for PubMed 29039417.
# B1: Protein PTHB1 (Homo sapiens), Q3SYG4 (parent)
# chain: MSLFKARDWWSTILGDKEEFDQGCLCLANVDNSGNGQDKIIVGSFMGYLRIFSPHPAKTGDGAQAEDLLLEVDLRDPVLQVEVGKFVSGTEMLHLAVLHSRKLCVYSVSGTLGNVEHGNQCQMKLMYEHNLQRTACNMTYGSFGGVKGRDLICIQSMDGMLMVFEQESYAFGRFLPGFLLPGPLAYSSRTDSFLTVSSCQQVESYKYQVLAFATDADKRQETEQQKLGSGKRLVVDWTLNIGEQALDICIVSFNQSASSVFVLGERNFFCLKDNGQIRFMKKLDWSPSCFLPYCSVSEGTINTLIGNHNNMLHIYQDVTLKWATQLPHIPVAVRVGCLHDLKGVIVTLSDDGHLQCSYLGTDPSLFQAPNVQSRELNYDELDVEMKELQKIIKDVNKSQGVWPMTEREDDLNVSVVVSPNFDSVSQATDVEVGTDLVPSVTVKVTLQNRVILQKAKLSVYVQPPLELTCDQFTFEFMTPDLTRTVSFSVYLKRSYTPSELEGNAVVSYSRPTDRNPDGIPRVIQCKFRLPLKLICLPGQPSKTASHKITIDTNKSPVSLLSLFPGFASQSDDDQVNVMGFHFLGGARITVLASKTSQRYRIQSEQFEDLWLITNELILRLQEYFEKQGVKDFACSFSGSIPLQEYFELIDHHFELRINGEKLEELLSERAVQFRAIQRRLLARFKDKTPAPLQHLDTLLDGTYKQVIALADAVEENQGNLFQSFTRLKSATHLVILLIALWQKLSADQVAILEAAFLPLQEDTQELGWEETVDAAISHLLKTCLSKSSKEQALNLNSQLNIPKDTSQLKKHITLLCDRLSKGGRLCLSTDAAAPQTMVMPGGCTTIPESDLEERSVEQDSTELFTNHRHLTAETPRPEVSPLQGVSE
# partner: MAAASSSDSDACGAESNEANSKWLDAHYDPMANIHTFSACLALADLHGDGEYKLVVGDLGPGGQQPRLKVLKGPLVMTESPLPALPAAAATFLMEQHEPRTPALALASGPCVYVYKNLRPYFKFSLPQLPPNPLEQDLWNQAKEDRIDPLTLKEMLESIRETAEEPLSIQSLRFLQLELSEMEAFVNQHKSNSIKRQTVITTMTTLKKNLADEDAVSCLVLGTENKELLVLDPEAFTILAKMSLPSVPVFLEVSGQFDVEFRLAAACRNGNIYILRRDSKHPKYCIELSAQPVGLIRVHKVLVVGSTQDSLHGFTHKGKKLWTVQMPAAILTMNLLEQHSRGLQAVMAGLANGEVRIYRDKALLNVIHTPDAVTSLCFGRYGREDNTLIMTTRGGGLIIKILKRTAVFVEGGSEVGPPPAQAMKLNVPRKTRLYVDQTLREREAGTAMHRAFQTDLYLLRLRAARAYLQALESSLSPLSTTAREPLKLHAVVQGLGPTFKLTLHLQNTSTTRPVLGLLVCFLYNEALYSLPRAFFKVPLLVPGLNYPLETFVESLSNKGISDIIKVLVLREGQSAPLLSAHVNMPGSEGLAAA
# Variants of: B1
# Conditions: with bbs1_human BBS1, Q8NFJ9
row,Variant,effect of a mutation on the interaction
1,S486E,with no effect
2,V629A,with no effect
3,L863E,with no effect
4,S828E,with no effect
5,E615A,with no effect
6,P834E,with no effect
7,L736K,with no effect
8,G701R,disrupting interaction strength
9,G701A,with no effect
10,E466K,with no effect
11,D551A,with no effect
12,T697K,with no effect
13,A774K,with no effect
14,N503A,with no effect
15,I751K,with no effect
16,I751A,with no effect
17,T473A,with no effect
18,N796A,with no effect
19,V437K,with no effect
20,I534A,with no effect
21,F474A,with no effect
22,S729K,with no effect
23,L827E,with no effect
24,F636A,with no effect
25,D711A,with no effect
26,V706K,with no effect
27,Y599E,with no effect

row,Variant,effect of a mutation on the interaction
1,Q597K,with no effect
2,R669A,with no effect
3,P520K,with no effect
4,N800K,with no effect
5,K492A,with no effect
6,S787A,with no effect
7,N794A,with no effect
8,L814K,with no effect
9,Q677E,with no effect
10,D410K,with no effect
11,G433E,with no effect
12,V440A,with no effect
13,G842A,with no effect
14,L411E,with no effect
15,E499K,with no effect
16,S777K,with no effect
17,C783K,with no effect
18,D517A,with no effect
19,D517E,with no effect
20,E714K,with no effect
21,E625A,with no effect
22,F472E,with no effect
23,S568E,with no effect
24,C525E,with no effect
25,H867E,with no effect
26,T861E,with no effect
27,L699K,disrupting interaction strength

row,Variant,effect of a mutation on the interaction
1,L609E,with no effect
2,T829E,with no effect
3,G502R,disrupting interaction strength
4,L737A,with no effect
5,H811K,with no effect
6,A730E,with no effect
7,R674P,disrupting interaction strength
8,L680K,with no effect
9,P875K,with no effect
10,A750E,with no effect
11,R598K,with no effect
12,E607V,disrupting interaction strength
13,W768E,with no effect
14,F476E,with no effect
15,A567K,with no effect
16,L655K,with no effect
17,V416E,with no effect
18,T763K,with no effect
19,S639A,with no effect
20,T468E,with no effect
21,V432E,disrupting interaction strength
22,V505K,with no effect
23,I657K,with no effect
24,I657E,with no effect
25,D696K,with no effect
26,N515K,with no effect
27,P802E,with no effect

row,Variant,effect of a mutation on the interaction
1,D650E,with no effect
2,S425A,with no effect
3,E765K,with no effect
4,I801E,with no effect
5,E663K,with no effect
6,R876E,with no effect
7,E664K,with no effect
8,S849E,with no effect
9,L665K,with no effect
10,Y490K,with no effect
11,E647A,with no effect
12,A710E,with no effect
13,Q627T,disrupting interaction strength
14,S886K,with no effect
15,T478K,with no effect
16,Q760E,with no effect
17,D747E,with no effect
18,K803A,with no effect
19,F566A,with no effect
20,S593A,with no effect
21,F606A,with no effect
22,S637A,with no effect
23,N719A,with no effect
24,S488A,with no effect

# Continued, values first:
row,effect of a mutation on the interaction,Variant
1,with no effect,Y703E
2,with no effect,A633E
3,with no effect,V629K
4,with no effect,P834A
5,with no effect,L648A
6,with no effect,F527K
7,with no effect,T697A
8,with no effect,A774E
9,with no effect,F421A
10,with no effect,S555K
11,with no effect,V671A
12,with no effect,V713A
13,with no effect,Q883E
14,with no effect,L827A
15,with no effect,Q705K
16,with no effect,V489K
17,with no effect,R818E
18,with no effect,R868E
19,with no effect,R683A
20,with no effect,D480E
21,with no effect,T496K
22,with no effect,F864E
23,with no effect,K630A
24,with no effect,K781A
25,with no effect,V772A
26,with no effect,S509K

row,effect of a mutation on the interaction,Variant
1,disrupting interaction strength,V838K
2,with no effect,C783A
3,with no effect,G822K
4,with no effect,D773K
5,with no effect,F472K
6,with no effect,L752K
7,with no effect,C826K
8,with no effect,G502E
9,with no effect,K532E
10,with no effect,T771E
11,disrupting interaction strength,T771S
12,with no effect,T771A
13,with no effect,A592E
14,with no effect,A750K
15,disrupting interaction strength,A690T
16,with no effect,F756E
17,disrupting interaction strength,L733A
18,with no effect,S806K
19,with no effect,V485K
20,with no effect,V442K
21,with no effect,N576A
22,with no effect,S639E
23,with no effect,S507E
24,with no effect,P540E
25,with no effect,E408A
26,disrupting interaction strength,P691L

row,effect of a mutation on the interaction,Variant
1,with no effect,H651K
2,with no effect,M477A
3,with no effect,T836K
4,with no effect,D650K
5,with no effect,S425E
6,with no effect,E663A
7,with no effect,R876K
8,with no effect,Q742E
9,with no effect,Q742K
10,with no effect,A455K
11,with no effect,T478A
12,with no effect,Y495K
13,with no effect,Q760A
14,with no effect,D747A
15,with no effect,L759A
16,with no effect,A427E
17,with no effect,L562E
18,with no effect,D830E
19,with no effect,L491K
20,with no effect,C535E
21,with no effect,V430A
22,with no effect,V430K
23,with no effect,S488E
24,with no effect,E431A
25,with no effect,T782E
